Legend:
[1] = target: dopamine D2 receptor, long isoform, p.Ile212Phe variant (UniProt P14416); experiment: FRET or BRET; HEK293 cells 48 hours after transfection, in phosphate-buffered saline with 0.1 mM CaCl2 and 0.5 mM MgCl2, ~100,000 cells/well; quinpirole (20-minute stimulation) followed by coelenterazine h at room temperature; agonist-induced recruitment, expressed as percentage of maximum recruitment by D2-WT
[2] = target: dopamine D2 receptor, short isoform, p.Ile212Phe variant (UniProt P14416); experiment: as above

maximal recruitment, percent of that by D2L-WT [1]: 48%
maximal recruitment, percent of that by D2S-WT [2]: 68%
Substance: arrestin3 (from UniProt P32121 1-409) (natural protein)

— publication PMC8049080
